Measurements as given in patent US20170119877A1.

Biological target: murine VISTA (V-domain Ig suppressor of T cell activation) on spleen cells / Ly6C+CD11b+ MDSCs of B6 mice (mouse) (UniProt Q9D659)
Assay: cell-based or functional assay

UniProt Q9D659, sequence (Q9D659 33-308): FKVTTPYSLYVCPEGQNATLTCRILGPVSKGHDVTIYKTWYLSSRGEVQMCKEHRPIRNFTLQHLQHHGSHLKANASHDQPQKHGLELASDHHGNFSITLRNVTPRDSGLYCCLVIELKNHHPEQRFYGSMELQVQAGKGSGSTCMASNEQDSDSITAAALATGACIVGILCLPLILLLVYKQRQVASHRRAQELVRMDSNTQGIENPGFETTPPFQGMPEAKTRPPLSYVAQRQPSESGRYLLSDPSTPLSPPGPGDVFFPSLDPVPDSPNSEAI

anti-VISTA mAb (13F3) (antibody) was tested. Which blocking of MDSC suppression of B-cell responsiveness (3H-thymidine incorporation, α-CD40 + IL-4 stimulation) did it give?
Its blocking of MDSC suppression of B-cell responsiveness (3H-thymidine incorporation, α-CD40 + IL-4 stimulation) is 50%.

What about the blocking of MDSC suppression of B-cell responsiveness, corrected for control HIg of the same substance?
Its blocking of MDSC suppression of B-cell responsiveness, corrected for control HIg is 55%.

What about the blocking of MDSC suppression of B-cell responsiveness, over several independent experiments of the same substance?
The blocking of MDSC suppression of B-cell responsiveness, over several independent experiments was 65%.
